B1: BRCA1-A complex subunit Abraxas 1 (Homo sapiens), Q6UWZ7 (parent)
chain: MEGESTSAVLSGFVLGALAFQHLNTDSDTEGFLLGEVKGEAKNSITDSQMDDVEVVYTIDIQKYIPCYQLFSFYNSSGEVNEQALKKILSNVKKNVVGWYKFRRHSDQIMTFRERLLHKNLQEHFSNQDLVFLLLTPSIITESCSTHRLEHSLYKPQKGLFHRVPLVVANLGMSEQLGYKTVSGSCMSTGFSRAVQTHSSKFFEEDGSLKEVHKINEMYASLQEELKSICKKVEDSEQAVDKLVKDVNRLKREIEKRRGAQIQAAREKNIQKDPQENIFLCQALRTFFPNSEFLHSCVMSLKNRHVSKSSCNYNHHLDVVDNLTLMVEHTDIPEASPASTPQIIKHKALDLDDRWQFKRSRLLDTQDKRSKADTGSSNQDKASKMSSPETDEEIEKMKGFGEYSRSPTF
partner: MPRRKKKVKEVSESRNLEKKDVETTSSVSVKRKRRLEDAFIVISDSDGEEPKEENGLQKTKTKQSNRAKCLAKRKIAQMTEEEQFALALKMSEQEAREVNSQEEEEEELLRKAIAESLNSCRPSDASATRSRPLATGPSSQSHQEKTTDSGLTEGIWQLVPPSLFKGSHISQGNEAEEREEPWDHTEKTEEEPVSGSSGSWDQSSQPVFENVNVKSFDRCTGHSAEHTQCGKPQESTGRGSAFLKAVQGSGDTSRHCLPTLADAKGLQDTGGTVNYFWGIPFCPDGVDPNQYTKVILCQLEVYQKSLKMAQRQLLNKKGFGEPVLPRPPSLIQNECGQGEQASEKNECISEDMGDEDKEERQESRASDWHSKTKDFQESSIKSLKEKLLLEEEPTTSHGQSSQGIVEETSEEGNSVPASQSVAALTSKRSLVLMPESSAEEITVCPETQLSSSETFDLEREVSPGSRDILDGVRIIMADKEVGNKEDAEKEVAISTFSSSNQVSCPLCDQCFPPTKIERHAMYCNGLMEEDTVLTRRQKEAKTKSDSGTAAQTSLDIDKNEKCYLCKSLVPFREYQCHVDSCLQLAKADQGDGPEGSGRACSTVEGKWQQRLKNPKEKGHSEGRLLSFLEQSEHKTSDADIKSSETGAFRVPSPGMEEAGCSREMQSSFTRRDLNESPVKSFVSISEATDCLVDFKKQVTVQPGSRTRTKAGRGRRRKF
B2: BRCA1-A complex subunit Abraxas 1 (Homo sapiens), Q6UWZ7 (parent)
chain: B1 chain

Variants of: B1
Details: with uimc1_human UIMC1, Q96RL1

| Variant | effect of a mutation on the interaction |
| --- | --- |
| MEGESTSAVLSGFVLGALAFQHLNTDSDTEGFLLGEVKGEAKNSITDSQMDDVEVVYTIDIQKYIPCYQLFSFYNSSGEVNEQALKKILSNVKKNVVGWYKFRRHSDQIMTFRERLLHKNLQEHFSNQDLVFLLLTPSIITESCSTHRLEHSLYKPQKGLFHRVPLVVANLGMSEQLGYKTVSGSCMSTGFSRAVQTHSSKFFEEDGSLKEVHKINEMYASLQEELKSICKKVEDSEQAVDKLVKDVNRLKREIEKRRGAQIQAAREKNIQKDPQENIFLCQALRTFFPNSEFLHSCVMSLKNRHVSKSSCNYNHHLDVVDNLTLMVEHTDIPEASPASTPQIIKHKALDLDDRWQFKRSRLLDTQDKRSKADTGSSNQDKASKMSSPETDEEIEKMKGFGEYSRAPTF [S406A] | disrupting interaction |

Variants of: B2
Details: with brca1_human BRCA1, P38398
brca1_human BRCA1, P38398, sequence (P38398 whole entry, looked up): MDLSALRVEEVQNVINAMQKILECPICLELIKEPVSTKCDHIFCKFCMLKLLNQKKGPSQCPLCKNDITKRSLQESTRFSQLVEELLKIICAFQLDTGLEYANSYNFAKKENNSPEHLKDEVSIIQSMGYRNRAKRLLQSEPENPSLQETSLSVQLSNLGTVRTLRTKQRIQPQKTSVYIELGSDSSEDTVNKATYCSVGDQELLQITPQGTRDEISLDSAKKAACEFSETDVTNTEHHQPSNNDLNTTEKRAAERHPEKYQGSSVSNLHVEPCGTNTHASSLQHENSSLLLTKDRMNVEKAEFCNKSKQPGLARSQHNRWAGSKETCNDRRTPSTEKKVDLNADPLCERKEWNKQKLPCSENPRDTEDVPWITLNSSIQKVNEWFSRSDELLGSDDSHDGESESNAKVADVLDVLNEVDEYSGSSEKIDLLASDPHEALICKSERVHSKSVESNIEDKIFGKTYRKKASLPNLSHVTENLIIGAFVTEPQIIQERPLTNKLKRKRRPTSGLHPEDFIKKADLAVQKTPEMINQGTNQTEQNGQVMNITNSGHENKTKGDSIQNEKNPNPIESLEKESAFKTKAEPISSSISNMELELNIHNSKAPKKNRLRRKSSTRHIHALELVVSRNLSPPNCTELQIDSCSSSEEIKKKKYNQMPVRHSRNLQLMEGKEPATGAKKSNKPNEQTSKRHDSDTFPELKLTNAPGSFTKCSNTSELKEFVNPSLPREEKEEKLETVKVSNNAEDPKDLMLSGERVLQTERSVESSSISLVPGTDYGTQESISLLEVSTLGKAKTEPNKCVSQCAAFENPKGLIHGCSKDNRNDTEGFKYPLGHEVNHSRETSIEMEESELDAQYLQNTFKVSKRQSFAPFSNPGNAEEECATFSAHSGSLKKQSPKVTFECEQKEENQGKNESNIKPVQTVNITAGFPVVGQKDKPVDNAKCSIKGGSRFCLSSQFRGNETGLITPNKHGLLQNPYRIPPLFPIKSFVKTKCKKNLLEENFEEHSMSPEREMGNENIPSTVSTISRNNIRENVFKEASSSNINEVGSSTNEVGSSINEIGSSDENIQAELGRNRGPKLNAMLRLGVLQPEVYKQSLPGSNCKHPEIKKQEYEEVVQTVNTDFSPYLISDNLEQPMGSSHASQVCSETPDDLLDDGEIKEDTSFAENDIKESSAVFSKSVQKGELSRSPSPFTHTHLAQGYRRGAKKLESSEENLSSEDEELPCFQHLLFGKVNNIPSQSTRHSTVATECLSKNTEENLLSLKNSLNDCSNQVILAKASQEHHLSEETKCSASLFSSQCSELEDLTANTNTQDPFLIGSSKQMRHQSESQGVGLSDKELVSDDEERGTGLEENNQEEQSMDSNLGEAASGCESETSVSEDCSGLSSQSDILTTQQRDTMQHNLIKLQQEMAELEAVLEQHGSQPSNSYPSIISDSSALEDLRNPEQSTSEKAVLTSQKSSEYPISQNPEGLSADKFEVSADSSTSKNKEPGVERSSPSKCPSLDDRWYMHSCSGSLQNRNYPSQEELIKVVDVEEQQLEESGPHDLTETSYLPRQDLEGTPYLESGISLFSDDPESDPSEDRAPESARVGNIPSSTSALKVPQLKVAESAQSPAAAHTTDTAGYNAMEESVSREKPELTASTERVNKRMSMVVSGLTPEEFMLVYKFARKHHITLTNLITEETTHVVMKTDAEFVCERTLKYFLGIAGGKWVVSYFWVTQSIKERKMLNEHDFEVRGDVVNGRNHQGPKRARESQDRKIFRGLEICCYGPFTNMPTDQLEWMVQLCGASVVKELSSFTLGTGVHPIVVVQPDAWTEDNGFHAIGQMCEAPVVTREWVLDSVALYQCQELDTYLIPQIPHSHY

| Variant | effect of a mutation on the interaction |
| --- | --- |
| MEGESTSAVLSGFVLGALAFQHLNTDSDTEGFLLGEVKGEAKNSITDSQMDDVEVVYTIDIQKYIPCYQLFSFYNSSGEVNEQALKKILSNVKKNVVGWYKFRRHSDQIMTFRERLLHKNLQEHFSNQDLVFLLLTPSIITESCSTHRLEHSLYKPQKGLFHRVPLVVANLGMSEQLGYKTVSGSCMSTGFSRAVQTHSSKFFEEDGSLKEVHKINEMYASLQEELKSICKKVEDSEQAVDKLVKDVNRLKREIEKRRGAQIQAAREKNIQKDPQENIFLCQALRTFFPNSEFLHSCVMSLKNRHVSKSSCNYNHHLDVVDNLTLMVEHTDIPEASPASTPQIIKHKALDLDDRWQFKRSRLLDTQDKRSKADTGSSNQDKASKMSSPETDEEIEKMKGFGEYSRAPTF [S406A] | disrupting interaction |

Variants of: B2
Details: with brca1_human BRCA1, P38398
Remark: another data set of the same source

| Variant | effect of a mutation on the interaction |
| --- | --- |
| MEGESTSAVLSGFVLGALAFQHLNTDSDTEGFLLGEVKGEAKNSITDSQMDDVEVVYTIDIQKYIPCYQLFSFYNSSGEVNEQALKKILSNVKKNVVGWYKFRRHSDQIMTFRERLLHKNLQEHFSNQDLVFLLLTPSIITESCSTHRLEHSLYKPQKGLFHRVPLVVANLGMSEQLGYKTVSGSCMSTGFSRAVQTHSSKFFEEDGSLKEVHKINEMYASLQEELKSICKKVEDSEQAVDKLVKDVNRLKREIEKRRGAQIQAAREKNIQKDPQENIFLCQALRTFFPNSEFLHSCVMSLKNRHVSKSSCNYNHHLDVVDNLTLMVEHTDIPEASPASTPQIIKHKALDLDDRWQFKRSRLLDTQDKRSKADTGSSNQDKASKMSSPETDEEIEKMKGFGEYSRAPTF [S406A] | increasing interaction |
